Results as given in paper PMC9036092 (The Journal of Cell Biology, 2022).
Where no end group is shown, it is not given here. The star is where a group is joined. FITC = O=C1OC2(c3ccc(O)cc3Oc3cc(O)ccc32)c2ccc(NC(=S)*)cc21; Ahx = NCCCCCC(=O)O

B1: FITC-labeled peptide corresponding to residues 699–729 of BAP1 (peptide)
peptide: {FITC-Ahx}-RRRQGVSIGRLHKQRKPDRRKRSRPYKAKRQ

Key:
Assay in all cases: fluorescence polarisation
[1] = biological target: FITC-labeled peptide corresponding to residues 699–729 of BAP1 (human)
[2] = biological target: Importin α5 (KPNA1), residues 66–512, without the IBB domain (UniProt P52294 66-512)
[3] = biological target: B1

Chain of Importin α5 (KPNA1), residues 66–512, without the IBB domain (P52294 66-512): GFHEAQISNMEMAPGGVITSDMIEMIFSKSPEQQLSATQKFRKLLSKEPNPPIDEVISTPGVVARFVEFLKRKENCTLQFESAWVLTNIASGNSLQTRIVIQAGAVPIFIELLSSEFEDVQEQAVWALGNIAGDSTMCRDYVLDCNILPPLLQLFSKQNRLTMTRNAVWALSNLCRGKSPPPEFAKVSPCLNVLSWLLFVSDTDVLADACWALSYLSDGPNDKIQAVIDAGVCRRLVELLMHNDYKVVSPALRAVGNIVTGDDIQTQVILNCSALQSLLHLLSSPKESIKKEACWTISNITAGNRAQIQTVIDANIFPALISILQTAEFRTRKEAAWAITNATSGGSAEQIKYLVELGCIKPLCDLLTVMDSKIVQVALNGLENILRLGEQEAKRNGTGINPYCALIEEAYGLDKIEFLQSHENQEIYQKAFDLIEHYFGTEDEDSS

## Importin α1 (KPNA2), residues 60–529, without the IBB domain (from UniProt P52292 60-529) (domain or fragment)
[1]
  Kd: > 7200 nM

## B1
[2]
  Kd: 670 nM

B2: Transportin-1 (TNPO1) with the acidic loop (residues 337–367) replaced by a GGSGGSG linker (natural protein)
chain: MEYEWKPDEQGLQQILQLLKESQSPDTTIQRTVQQKLEQLNQYPDFNNYLIFVLTKLKSEDEPTRSLSGLILKNNVKAHFQNFPNGVTDFIKSECLNNIGDSSPLIRATVGILITTIASKGELQNWPDLLPKLCSLLDSEDYNTCEGAFGALQKICEDSAEILDSDVLDRPLNIMIPKFLQFFKHSSPKIRSHAVACVNQFIISRTQALMLHIDSFIENLFALAGDEEPEVRKNVCRALVMLLEVRMDRLLPHMHNIVEYMLQRTQDQDENVALEACEFWLTLAEQPICKDVLVRHLPKLIPVLVNGMKYSDIDIILLKGDVEEDETIPDSEQDIRGGSGGSGDTISDWNLRKCSAAALDVLANVYRDELLPHILPLLKELLFHHEWVVKESGILVLGAIAEGCMQGMIPYLPELIPHLIQCLSDKKALVRSITCWTLSRYAHWVVSQPPDTYLKPLMTELLKRILDSNKRVQEAACSAFATLEEEACTELVPYLAYILDTLVFAFSKYQHKNLLILYDAIGTLADSVGHHLNKPEYIQMLMPPLIQKWNMLKDEDKDLFPLLECLSSVATALQSGFLPYCEPVYQRCVNLVQKTLAQAMLNNAQPDQYEAPDKDFMIVALDLLSGLAEGLGGNIEQLVARSNILTLMYQCMQDKMPEVRQSSFALLGDLTKACFQHVKPCIADFMPILGTNLNPEFISVCNNATWAIGEISIQMGIEMQPYIPMVLHQLVEIINRPNTPKTLLENTAITIGRLGYVCPQEVAPMLQQFIRPWCTSLRNIRDNEEKDSAFRGICTMISVNPSGVIQDFIFFCDAVASWINPKDDLRDMFCKILHGFKNQVGDENWRRFSDQFPLPLKERLAAFYGV
[3]
  Kd: 19.6 nM
